Patent US20200368364A1, “CYSTEINE PEPTIDE-ENABLED ANTIBODIES” (City of Hope, priority 2016, published 2020)

Molecular target: FcγRIIIa on Jurkat effector cells (UniProt P08637)
Test: cell-based or functional assay

Sequence of FcγRIIIa on Jurkat effector cells (P08637 17-254 limits assumed): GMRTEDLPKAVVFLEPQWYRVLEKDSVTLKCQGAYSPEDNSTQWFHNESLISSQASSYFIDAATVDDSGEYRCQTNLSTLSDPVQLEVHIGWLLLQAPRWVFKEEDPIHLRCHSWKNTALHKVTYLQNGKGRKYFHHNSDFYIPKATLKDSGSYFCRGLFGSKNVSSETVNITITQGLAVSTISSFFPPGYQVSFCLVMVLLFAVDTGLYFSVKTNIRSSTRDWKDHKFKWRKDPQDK

- EC50 of in vitro ADCC reporter assay (SKBR3 targets, Jurkat effector cells), independent measurement 1: 3.2 pM
- EC50 of in vitro ADCC reporter assay (SKBR3 targets, Jurkat effector cells), independent measurement 2: 4.7 pM
B1: templated αCD16-Fab construct with the C-terminal fusion (175Cys trastuzumab Fab + C-terminal meditope αCD16 nanobody) (bispecific antibody, part only; not given: trastuzumab Fab chains, V domains shown, part only)
VHH: EVQLVESGGELVQAGGSLRLSCAASGLTFSSYNMGWFRRAPGKEREFVASITWSGRDTFYADSVKGRFTISRDNAKNTVYLQMSSLKPEDTAVYYCAANPWPVAAPRSGTYWGQGTQVTVSSGSHHHHHHGGSQFDLCTRRLQS
